Reference: patent US20250195647A1 (CORBUS PHARMACEUTICALS, published 2025)

B1: huAb1 (antibody, V domains shown)
VH: QIQLVQSGSELKKPGASVKVSCKASGYTFTKYSMHWVRQAPGQGLEWMARINTETGNPTYADGFRGRFVVSLDTSVSTAYLQISSLKAEDTAVYYCAIFYYGRDTWGQGTTVTVSS
VL: DIVMTQSPDSLAVSLGERATINCKSSQSLLHSRSRKNYLAWYQQKPGQPPKLLIYWASTRESGVPDRFSGSGSGTDFTLTISSLQAEDVAVYYCKQSYNLLSFGQGTKLEIK
notes: also called anti-αvβ8 antibody
B2: muAb1 (antibody, V domains shown)
VH: B1 VH
VL: B1 VL
notes: also called murine-human hybrid monoclonal anti-αVβ8 antibody; murine compatible version of huAb1

How the values were obtained:
integrin αVβ8 (human) = target: T1, integrin αVβ8 (human) (human, UniProt P06756 31-992; P26012 43-684); test: SPR, mAb captured on anti-Fc CM5 chip, integrin injected, 37 C, 1:1 fit
T1 construct: Integrin heterodimer injected as analyte in SPR; also called avb8
T1 sequence (P06756 31-992, chain 1 of 2): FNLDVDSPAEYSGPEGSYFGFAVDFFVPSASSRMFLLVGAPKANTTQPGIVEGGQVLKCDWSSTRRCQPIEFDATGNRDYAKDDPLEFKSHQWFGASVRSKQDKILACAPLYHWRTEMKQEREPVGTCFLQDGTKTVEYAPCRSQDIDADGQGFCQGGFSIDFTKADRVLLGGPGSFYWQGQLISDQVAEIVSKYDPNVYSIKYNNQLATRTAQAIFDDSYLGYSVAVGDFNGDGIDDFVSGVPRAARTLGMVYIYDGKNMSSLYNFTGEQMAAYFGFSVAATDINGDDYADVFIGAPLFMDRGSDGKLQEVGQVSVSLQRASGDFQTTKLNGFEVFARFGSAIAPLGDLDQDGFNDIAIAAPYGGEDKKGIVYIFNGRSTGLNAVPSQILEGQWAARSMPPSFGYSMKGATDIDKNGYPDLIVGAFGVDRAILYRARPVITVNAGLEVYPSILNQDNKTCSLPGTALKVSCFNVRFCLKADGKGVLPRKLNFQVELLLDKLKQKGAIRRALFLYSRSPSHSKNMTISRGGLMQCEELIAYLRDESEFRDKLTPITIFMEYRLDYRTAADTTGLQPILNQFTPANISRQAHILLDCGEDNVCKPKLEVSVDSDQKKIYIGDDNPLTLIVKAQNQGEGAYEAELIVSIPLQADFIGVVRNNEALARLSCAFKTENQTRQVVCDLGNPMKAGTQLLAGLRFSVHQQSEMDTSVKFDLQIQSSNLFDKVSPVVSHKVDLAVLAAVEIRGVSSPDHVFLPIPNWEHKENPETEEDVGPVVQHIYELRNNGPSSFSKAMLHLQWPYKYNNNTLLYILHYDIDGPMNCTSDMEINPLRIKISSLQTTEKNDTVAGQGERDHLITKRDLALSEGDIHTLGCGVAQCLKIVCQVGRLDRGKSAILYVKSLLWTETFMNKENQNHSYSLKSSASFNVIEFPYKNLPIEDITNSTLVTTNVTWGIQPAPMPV
T1 sequence (P26012 43-684, chain 2 of 2): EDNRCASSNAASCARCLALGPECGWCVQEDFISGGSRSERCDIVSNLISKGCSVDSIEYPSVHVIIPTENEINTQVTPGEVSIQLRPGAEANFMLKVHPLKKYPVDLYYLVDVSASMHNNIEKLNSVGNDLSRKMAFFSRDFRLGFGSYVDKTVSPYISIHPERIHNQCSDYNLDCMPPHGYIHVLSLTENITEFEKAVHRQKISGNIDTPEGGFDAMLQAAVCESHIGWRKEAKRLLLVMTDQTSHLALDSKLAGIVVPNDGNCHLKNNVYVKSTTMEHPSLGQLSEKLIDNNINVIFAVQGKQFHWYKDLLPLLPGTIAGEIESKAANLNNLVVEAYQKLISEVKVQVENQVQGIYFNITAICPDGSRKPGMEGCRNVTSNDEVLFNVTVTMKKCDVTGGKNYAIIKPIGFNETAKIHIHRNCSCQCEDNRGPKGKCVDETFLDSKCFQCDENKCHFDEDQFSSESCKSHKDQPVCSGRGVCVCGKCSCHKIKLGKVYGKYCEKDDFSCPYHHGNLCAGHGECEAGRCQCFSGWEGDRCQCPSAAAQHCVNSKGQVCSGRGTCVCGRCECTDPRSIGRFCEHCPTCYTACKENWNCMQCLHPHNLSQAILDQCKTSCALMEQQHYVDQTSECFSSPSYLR
Description: (§1) Antibodies were assessed by surface plasmon resonance (SPR) for the ability to bind to integrin heterodimers. mAbs were immobilized on an anti-Fc CM5 sensor chip, and integrins (0.39-50 nM for and 200 nM for others) were injected at a flow rate of […] for a contact time of 180 s and dissociation time of 400 s, at 37° C. Data were fit (grey lines) to a 1:1 antibody:ligand binding model to determine Kd.

integrin αVβ8 (murine) = target: T2, integrin αVβ8 (murine) (murine, UniProt P43406 31-988; Q0VBD0 43-681); test: as above
T2 construct: Integrin heterodimer injected as analyte in SPR; also called mαVβ8
T2 sequence (P43406 31-988, chain 1 of 2): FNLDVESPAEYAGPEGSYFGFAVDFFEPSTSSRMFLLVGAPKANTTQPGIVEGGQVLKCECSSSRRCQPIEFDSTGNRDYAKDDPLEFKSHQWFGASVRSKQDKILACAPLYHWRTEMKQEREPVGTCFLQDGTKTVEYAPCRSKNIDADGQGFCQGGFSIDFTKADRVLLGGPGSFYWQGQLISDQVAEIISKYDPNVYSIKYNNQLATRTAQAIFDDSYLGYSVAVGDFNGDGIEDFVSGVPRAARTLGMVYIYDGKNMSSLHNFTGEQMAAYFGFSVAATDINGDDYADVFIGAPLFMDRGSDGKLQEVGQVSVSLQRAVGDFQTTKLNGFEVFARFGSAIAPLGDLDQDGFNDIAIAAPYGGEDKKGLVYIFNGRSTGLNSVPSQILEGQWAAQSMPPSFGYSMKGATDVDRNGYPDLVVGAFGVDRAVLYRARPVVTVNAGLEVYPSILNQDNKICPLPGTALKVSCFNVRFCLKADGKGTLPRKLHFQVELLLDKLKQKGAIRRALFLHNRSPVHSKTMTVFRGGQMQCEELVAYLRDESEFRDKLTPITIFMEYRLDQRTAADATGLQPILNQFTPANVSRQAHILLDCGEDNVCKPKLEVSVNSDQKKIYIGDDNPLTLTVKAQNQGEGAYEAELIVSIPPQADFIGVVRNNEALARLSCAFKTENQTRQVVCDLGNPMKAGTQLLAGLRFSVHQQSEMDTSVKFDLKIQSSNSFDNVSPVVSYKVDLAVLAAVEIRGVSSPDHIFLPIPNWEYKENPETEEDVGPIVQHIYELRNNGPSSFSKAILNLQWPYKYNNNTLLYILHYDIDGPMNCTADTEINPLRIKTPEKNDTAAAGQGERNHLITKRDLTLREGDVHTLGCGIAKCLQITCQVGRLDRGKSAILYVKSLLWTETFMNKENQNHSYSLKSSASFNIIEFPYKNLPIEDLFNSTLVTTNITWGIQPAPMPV
T2 sequence (Q0VBD0 43-681, chain 2 of 2): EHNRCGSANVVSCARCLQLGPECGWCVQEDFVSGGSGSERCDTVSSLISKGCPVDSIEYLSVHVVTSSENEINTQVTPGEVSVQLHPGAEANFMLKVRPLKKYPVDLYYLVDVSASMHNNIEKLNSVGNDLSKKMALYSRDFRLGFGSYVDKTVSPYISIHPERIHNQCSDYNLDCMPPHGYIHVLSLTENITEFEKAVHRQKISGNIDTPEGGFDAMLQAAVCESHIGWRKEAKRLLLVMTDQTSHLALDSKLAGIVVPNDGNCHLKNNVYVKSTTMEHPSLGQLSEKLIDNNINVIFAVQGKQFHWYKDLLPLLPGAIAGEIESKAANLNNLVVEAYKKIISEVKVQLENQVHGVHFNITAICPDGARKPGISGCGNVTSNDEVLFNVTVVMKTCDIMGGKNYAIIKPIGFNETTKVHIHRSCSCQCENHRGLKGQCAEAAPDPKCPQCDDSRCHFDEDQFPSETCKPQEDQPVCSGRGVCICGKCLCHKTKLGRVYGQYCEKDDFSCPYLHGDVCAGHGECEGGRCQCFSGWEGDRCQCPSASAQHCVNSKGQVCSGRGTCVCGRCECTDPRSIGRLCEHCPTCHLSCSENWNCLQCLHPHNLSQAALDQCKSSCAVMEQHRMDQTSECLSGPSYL
Description: as §1

[1] = target: T3, αvβ8 expressed on the surface of LN229 cells (UniProt P06756 31-1048; P26012 43-769); test: cell-based competition (adhesion) assay: LN229 cells expressing αvβ8 on plate-immobilized L-TGFβ, Crystal Violet readout
T3 construct: whole, on cells; also called avb8 on LN229 cells
T3 sequence (P06756 31-1048, chain 1 of 2): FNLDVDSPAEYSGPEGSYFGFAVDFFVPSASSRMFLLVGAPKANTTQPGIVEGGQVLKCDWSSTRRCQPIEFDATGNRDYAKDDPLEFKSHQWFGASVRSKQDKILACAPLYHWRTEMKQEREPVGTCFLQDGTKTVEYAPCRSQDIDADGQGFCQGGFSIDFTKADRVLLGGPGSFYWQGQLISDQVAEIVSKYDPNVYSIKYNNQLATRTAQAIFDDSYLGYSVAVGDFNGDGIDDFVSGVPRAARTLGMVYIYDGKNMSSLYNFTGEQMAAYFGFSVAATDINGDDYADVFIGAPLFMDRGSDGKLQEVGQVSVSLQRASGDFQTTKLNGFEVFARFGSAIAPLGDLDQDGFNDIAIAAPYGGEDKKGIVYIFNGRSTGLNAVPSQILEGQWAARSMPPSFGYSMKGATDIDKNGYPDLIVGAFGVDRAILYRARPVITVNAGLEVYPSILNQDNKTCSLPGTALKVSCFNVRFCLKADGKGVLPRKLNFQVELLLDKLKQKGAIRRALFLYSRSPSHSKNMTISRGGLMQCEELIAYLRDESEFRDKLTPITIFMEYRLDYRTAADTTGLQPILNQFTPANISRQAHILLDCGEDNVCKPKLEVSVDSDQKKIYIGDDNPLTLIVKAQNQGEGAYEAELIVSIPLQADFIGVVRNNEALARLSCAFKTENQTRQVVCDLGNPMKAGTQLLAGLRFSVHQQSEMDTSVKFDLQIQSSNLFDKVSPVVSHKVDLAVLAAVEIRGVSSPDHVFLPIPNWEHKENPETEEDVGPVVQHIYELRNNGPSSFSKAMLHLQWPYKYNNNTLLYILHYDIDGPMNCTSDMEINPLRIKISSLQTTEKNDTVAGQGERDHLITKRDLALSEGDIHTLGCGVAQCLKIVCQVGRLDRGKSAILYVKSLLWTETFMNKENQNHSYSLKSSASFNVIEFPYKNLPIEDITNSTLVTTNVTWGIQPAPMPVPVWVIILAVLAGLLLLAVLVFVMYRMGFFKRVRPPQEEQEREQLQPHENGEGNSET
T3 sequence (P26012 43-769, chain 2 of 2): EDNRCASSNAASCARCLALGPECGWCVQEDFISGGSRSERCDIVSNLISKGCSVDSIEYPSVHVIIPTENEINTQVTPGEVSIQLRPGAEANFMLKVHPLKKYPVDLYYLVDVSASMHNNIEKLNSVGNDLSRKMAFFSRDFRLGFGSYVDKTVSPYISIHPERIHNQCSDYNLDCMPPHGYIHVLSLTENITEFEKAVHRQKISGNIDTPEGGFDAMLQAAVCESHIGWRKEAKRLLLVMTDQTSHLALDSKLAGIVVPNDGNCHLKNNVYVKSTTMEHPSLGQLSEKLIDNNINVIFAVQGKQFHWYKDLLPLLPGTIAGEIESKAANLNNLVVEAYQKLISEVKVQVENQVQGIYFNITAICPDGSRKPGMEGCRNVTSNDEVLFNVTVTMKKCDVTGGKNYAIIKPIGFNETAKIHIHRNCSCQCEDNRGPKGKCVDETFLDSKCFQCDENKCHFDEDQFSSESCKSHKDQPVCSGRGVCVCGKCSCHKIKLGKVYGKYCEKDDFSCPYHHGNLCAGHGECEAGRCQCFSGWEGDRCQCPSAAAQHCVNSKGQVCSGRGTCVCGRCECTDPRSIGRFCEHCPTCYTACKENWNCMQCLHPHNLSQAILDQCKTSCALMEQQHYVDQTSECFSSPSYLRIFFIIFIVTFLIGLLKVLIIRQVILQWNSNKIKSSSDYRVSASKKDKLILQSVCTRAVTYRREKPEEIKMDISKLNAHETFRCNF
Description: (§2) Exemplary antibodies of the disclosure were evaluated for their ability to block binding of the latent form of TGFβ (L-TGFβ) to in a cell-based competition assay. TGFβ is ubiquitously expressed in the latent form and L-TGFβ promotes an immune suppressive phenotype within the tumor microenvironment. L-TGFβ was immobilized on a polystyrene plate and incubated with LN229 cells expressing and increasing concentrations of muAb1 for 30 mins at 37° C. Bound LN229 cells were quantified by Crystal Violet. Data were fit to a 4-parameter displacement curve to determine IC₅₀. […] The affinities of the two antibodies are similar as measured in this assay.

[2] = target: T3, αvβ8 expressed on the surface of LN229 …; test: cell-based competition (adhesion) assay: LN229 cells expressing αvβ8 on plate-immobilized L-TGFβ with increasing antibody, bound cells quantified by Crystal Violet, 4-parameter fit
Description: as §2

Row | Binder | Kd (integrin αVβ8 (human)) [nM] | Kd (integrin αVβ8 (murine)) [nM] | IC50 (read off the curve) [1] [nM] | IC50 [2] [nM]
1 | B1 | < 5 | < 5 | ~4 | < 5
2 | B2 | < 15 | < 15 | ~1 | < 5
